The data set concerns the target T1, LRIG1 (UniProt Q96JA1 Q96JA1:35-794).
T1 sequence: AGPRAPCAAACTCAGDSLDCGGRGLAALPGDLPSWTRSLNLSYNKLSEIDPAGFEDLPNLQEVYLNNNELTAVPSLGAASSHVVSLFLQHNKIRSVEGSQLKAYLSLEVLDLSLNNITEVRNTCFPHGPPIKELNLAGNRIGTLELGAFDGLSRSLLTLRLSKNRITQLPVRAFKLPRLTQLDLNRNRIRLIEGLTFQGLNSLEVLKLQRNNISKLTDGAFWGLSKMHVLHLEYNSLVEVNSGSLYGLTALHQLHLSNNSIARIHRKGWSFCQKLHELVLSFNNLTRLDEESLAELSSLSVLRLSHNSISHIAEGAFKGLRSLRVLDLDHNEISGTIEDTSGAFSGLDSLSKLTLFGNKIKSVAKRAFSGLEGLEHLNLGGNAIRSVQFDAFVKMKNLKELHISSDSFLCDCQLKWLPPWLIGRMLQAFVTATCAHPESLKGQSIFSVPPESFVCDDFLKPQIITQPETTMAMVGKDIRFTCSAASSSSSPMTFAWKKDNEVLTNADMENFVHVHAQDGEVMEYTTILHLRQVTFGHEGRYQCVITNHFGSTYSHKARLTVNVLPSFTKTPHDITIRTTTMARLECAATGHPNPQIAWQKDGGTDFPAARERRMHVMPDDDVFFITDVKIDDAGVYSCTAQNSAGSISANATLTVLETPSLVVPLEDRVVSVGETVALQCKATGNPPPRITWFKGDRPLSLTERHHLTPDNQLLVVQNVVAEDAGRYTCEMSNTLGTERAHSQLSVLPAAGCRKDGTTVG
Nature of the data set: flow; apparent; protein on Dynal His beads; no signal on non-protein beads. Conditions: tags: His-tagged, immobilized on magnetic His-capture beads (Dynal His beads). As for the experimental part:
Using a N40 library containing ˜10″ unique sequences, transcribed using a mixture of Phe-dUTP, 2′OMe ATP, 2′OMe CTP and 2′F GTP, SELEX was initiated against the protein LRIG1. In short, the His-tagged protein was immobilized on 1 μm, magnetic His-capture beads and incubated with the library for 30 minutes at 37° C. after which the beads were washed 3 times with buffer, and then any bound library molecules eluted by the addition of wash buffer containing the denaturant guanidine hydrochloride (4M). Following elution the library molecules were recovered by ethanol precipitation and reverse transcribed into DNA using SSIV under optimized conditions (2M betaine). The resulting ssDNA was then amplified by PCR and the resulting dsDNA then transcribed back in to modified RNA by transcription using the LAL-polymerase and a mixture of Phe-dUTP, 2′OMe ATP, 2′OMe CTP and 2′F GTP under the present optimized conditions. The process was repeated for 8 rounds of selection. A fluorescently labeled library was used to monitor the selection by flow cytometry. […] Importantly, when similar experiments were performed using non-protein target loaded beads, no signal over background was observed. […] Subsequent experiments were carried out to clone and sequence the round 6, 7 and 8 population and test individual molecules identified from the screen. […]

B1: Lrig1-Rd8-08 (clone 8) (XNA)
DNA: GGGAAGGAGAGACGACGCGACACCCCCTTGAGTCACAGGTGTGTGAGCGCCGACGGCTTGGTACAGCAGACAAGACCGGACAAGAAGC
modifications: 2'-F G; 2'-OMe A; 2'-OMe C; all T positions are 5-modified dU (Phe-dU)
In the case of B1, the Kd was around 25 nM.

B2: Lrig1-Rd8-11 (clone 11) (XNA)
DNA: GGGAAGGAGAGACGACGCGACACCCGCTTCACCGCTGTGTAACTGCGACGACGGACGTCAGATCAGCAGACAAGACCGGACAAGAAGC
modifications: 2'-F G; 2'-OMe A; 2'-OMe C; all T positions are 5-modified dU (Phe-dU)
B2: the Kd was around 35 nM.

The record behind these values is patent publication US20200181617, “CHEMICALLY MODIFIED RNA APTAMERS AND USES THEREOF” (ALBERT EINSTEIN COLLEGE OF MEDICINE, published 2020).
